Here are results for 10 substances from patent EP4707393A1, “DOUBLE-STRANDED SIRNA, CONJUGATE THEREOF AND USE THEREOF” (CMS Research & Development Pte. Ltd., priority 2023, dated 2024).

In series [1] the test system is human LPA gene (Genbank number: NM_005577.4). Description: Inhibitory activity against LPA mRNA, psiCHECK-2 dual-luciferase reporter vector in Huh7 cells. The settings on record: Huh7 cells transfected with LPA_psiCHECK-2 plasmid, RNAiMAX transfection. The class given is cell-based. Here is the method: A stock solution was prepared by dissolving in PBS and stored at -20 °C.
The human LPA gene (Genbank number: NM_005577.4) was cloned into the psiCHECK™-2 vector.
Huh7 cells were cultured in DMEM (Gibco-11995-065, 500 mL) medium, supplemented with FBS (ExCellBio-FSP500, 57 mL), Penicillin-Streptomycin solution (Hyclone-SV30010, 5.7 mL), GlutaMAX™ (Gibco-35050-061, 5.7 mL) and Non-Essential Amino Acids Solution (Gibco-11140050, 5.7 mL).
On Day 1, a method for transfection of the LPA_PSICHECK (TM)-2 plasmid is briefly described as follows: Huh7 cells were washed with DPBS, followed by digestion with 0.05% trypsin, gently pipetted into single cells in DMEM containing 10% FBS, and counted. Plasmid DNA was transferred into Huh7 cells using Fugene HD. The transfected cells were seeded into 96-well plates at a density of 10,000 cells per well, with 100 µL culture medium per well. The cells were incubated overnight in a 5% CO2 incubator at 37 °C.
On Day 2, the test compounds were diluted serially with PBS to 3 concentrations.
RNAiMAX transfection reagent was prepared by blending homogeneously with Opti-MEM at a ratio of RNAiMAX: Opti-MEM=3:47 in a 15 mL centrifuge tube as needed. The compounds were mixed with the RNAiMAX/Opti-MEM (1:1) and incubated for 15 min. The compound-containing RNAiMAX/Opti-MEM mixture was diluted 10-fold with fresh medium and blended homogeneously.
The medium in each well was aspirated, and then 100 µL of the fresh compound-containing medium was added, and then incubated in a 5% CO2, 37 °C incubator.
Experimental procedures refer to DUAL-GLO® Dual Luciferase Assay System instructions, briefly described as follows: Taking out the cells from the incubator, aspirating and discarding the supernatant, adding 75µL fresh culture medium and 75µL detection reagent, shaking for 10 minutes in the dark, and after the cells had been fully lysed, transfering100µL sample to an opaque whiteboard for detecting the Firefly luminescence signal; adding 50 µL Dual-Glo®Stop & Glo® test reagent to each well and detecting the Renilla luciferase signal after shaking for 10 minutes in the dark. The ratio of the reporter signal to the internal control reporter signal was calculated for each well.
[formula] % Inhibition = (1-Sampleratio/RNAiMAXcontrolratio) × 100% [formula]
Background: A reporter such as luciferase makes a cellular process visible.

Series [2] concerns hPBMCs. The series is described as follows: Immunogenicity test in hPBMCs (IL-6 and TNF-α ELISA of supernatant). The class given is cell-based, human. The settings on record: donor 1 hPBMCs, 18-20 h. Here is the method:
1 Experimental material • 1.1 Double-stranded siRNA conjugates • 1.2 hPBMCs, purchased from Shanghai Sailybio Medical Co., LTD. • 1.3 Main reagents: Penicillin-Streptomycin (Cat. No.: 15140122), RNase-free water (Cat. No.: AM9938), IL-6 ELISA kit (Cat. No.: 555220), TNF-α ELISA kit (Cat. No.: 555212), LPS (Cat. No.: L2630), etc. 2 Experimental method • 2.1 Compound Preparation: Compounds were prepared as stock solutions with enzyme-free water. Compound weight = powder weight * purity. The concentration of prepared solutions was 900 µg/mL, followed by three-fold serial dilution with enzyme-free water. Each concentration was diluted 10-fold with 1640 medium, resulting in a final enzyme-free water content of 5.0%. • 2.2 Experimental procedure: • 2.2.1 PBMC cells were resuscitated one day in advance and incubated overnight in 1640 complete medium. • 2.2.2 On the day of the experiment, PBMC cells were centrifuged at 300 × g for 8 minutes, and the cell density was adjusted to 1.6 × 10^6 mL with 1640 complete medium. The cells were then added to a 96-well plate, 125 µL per well, and incubated in a 37 °C, 5% CO2 incubator for 15 minutes. • 2.2.3 The diluted test compounds were added to the 96-well plate according to the plate map, all in duplicate, 125 µL for each well; the positive control group and the blank group were added with an equal volume of 1640 complete culture medium containing the same amount of enzyme-free water. • 2.2.4 After gently shaking, the well plates were incubated in an incubator at 37 °C for 18-20 h. The supernatant was collected by centrifugation, and secretions of TNF-α and IL-6 were detected by ELISA. • 2.2.5 Data were analyzed using GraphPad Prism 8 software. 3 Experimental results Table 10. IL-6 and TNF-α levels in the cell supernatant of donor 1 hPBMCs treated with different doses of test compounds
(An ELISA detects its analyte on a solid surface through an enzyme-linked reagent.)

As to “Z20: siRNA conjugate: sense SEQ ID NO:27, ligand D01 at 3' end of sense strand, antisense SEQ ID NO:56 (sense CCCTTATTGTTATACG; antisense ATCCCTCGTANAACAATAAGGGGCTGTT; 2'-OMe/2'-F modified, ligand at sense 3' end, full pattern not given here)”, the concentration for a half-maximal effect (EC50) in series [1] was found to be 0.51 nM.

In series [1], “Z10: siRNA conjugate: sense SEQ ID NO:34, ligand D08 at 3' end of sense strand, antisense SEQ ID NO:56 (sense CCCTTATTGTTATACG; antisense ATCCCTCGTANAACAATAAGGGGCTGTT; 2'-OMe/2'-F modified, ligand at sense 3' end, full pattern not given here)” showed an EC50 of 2.11 nM.

For the substance “Z17: siRNA conjugate: sense SEQ ID NO:36, ligand D01 at 3' end of sense strand, antisense SEQ ID NO:63 (sense NNCCCCTTATTGTTATACN; antisense ATCCCTCGTANAACAATAAGGGGCTG; 2'-OMe/2'-F modified, ligand at sense 3' end, full pattern not given here)”, in series [1], the EC50 is 1.5 nM.

“Z14: siRNA conjugate: sense SEQ ID NO:27, ligand D08 at 3' end of sense strand, antisense SEQ ID NO:62 (sense CCCTTATTGTTATACG; antisense ATCCCTCGTANAACAATAAGGGGCTGTT; 2'-OMe/2'-F modified, ligand at sense 3' end, full pattern not given here)” showed a concentration for a half-maximal effect (EC50) in series [1] of 1.59 nM.

“Z15: siRNA conjugate: sense SEQ ID NO:27, ligand D08 at 3' end of sense strand, antisense SEQ ID NO:63 (sense CCCTTATTGTTATACG; antisense ATCCCTCGTANAACAATAAGGGGCTG; 2'-OMe/2'-F modified, ligand at sense 3' end, full pattern not given here)” returned a concentration for a half-maximal effect (EC50) in series [1] of 0.23 nM.

Consider “Z12: siRNA conjugate: sense SEQ ID NO:27, ligand D08 at 3' end of sense strand, antisense SEQ ID NO:60 (sense CCCTTATTGTTATACG; antisense ATCCCTCGTANAACAATAAGGGGCTG; 2'-OMe/2'-F modified, ligand at sense 3' end, full pattern not given here)”, for which the EC50 in series [1] was determined as 0.32 nM.

Consider “Z45: siRNA conjugate: sense SEQ ID NO:50, ligand D01 at 3' end of sense strand, antisense SEQ ID NO:82 (sense CCTGCCAAGCTTGGTCATCTA; antisense NAGATGNCCAAGCTTGGCNGGTT; ligand D01 at sense 3' end; listed as RNA; modified_base 1..2: mod_base = OTHER; note = 2'-O-methylcytidine; modified_base 3: mod_base = OTHER; note = 2'-O-methyluridine; modified_base 4: mod_base = OTHER; note = 2'-O-methylguanosine; modified_base 5..6: mod_base = OTHER; note = 2'-O-m; modified_base 1: mod_base = OTHER; note = n is mDVPU; modified_base 2: mod_base = OTHER; note = 2'-deoxyadenosine; note = 2'-O-methyladenosi)”, for which the IL-6 in series [2] (5 µg/mL) was determined as 1327.5 pg/mL; in series [2] (15 µg/mL), 1321.5 pg/mL; in series [2] (45 µg/mL), 1321.4 pg/mL. The figures for the TNF alpha in series [2] (5 µg/mL), in series [2] (15 µg/mL) and in series [2] (45 µg/mL) were 35.3 pg/mL, 35.1 pg/mL and 34.9 pg/mL, respectively.

As to “Z39: siRNA conjugate: sense SEQ ID NO:49, ligand D21 at 3' end of sense strand, antisense SEQ ID NO:77 (sense CAGCCCCTTATTGTTATACGA; antisense NCGTATNACAATAAGGGGCNGTT; ligand D21 at sense 3' end; listed as RNA; modified_base 1: mod_base = OTHER; note = 2'-O-methylcytidine; modified_base 2: mod_base = OTHER; note = 2'-O-methyladenosine; modified_base 3: mod_base = OTHER; note = 2'-O-methylguanosine; modified_base 4..7: mod_base = OTHER; note = 2'-O-me; note = n is mDVPU; note = 2'-deoxycytidine; modified_base 4: mod_base = OTHER; note = 2'-O-methyluridine;)”, the values for the IL-6 in series [2] (5 µg/mL), in series [2] (15 µg/mL) and in series [2] (45 µg/mL) were 1333.6 pg/mL, 1304.8 pg/mL and 1297.0 pg/mL, respectively. In addition, the figures for the TNF alpha in series [2] (5 µg/mL), in series [2] (15 µg/mL) and in series [2] (45 µg/mL) were 31.4 pg/mL, 32.6 pg/mL and 33.3 pg/mL, respectively.

On to “Z44: siRNA conjugate: sense SEQ ID NO:51, ligand D01 at 3' end of sense strand, antisense SEQ ID NO:82 (sense CCTGCCAAGCTTGGTCATCTA; antisense NAGATGNCCAAGCTTGGCNGGTT; ligand D01 at sense 3' end; listed as RNA; modified_base 1..2: mod_base = OTHER; note = 2'-O-methylcytidine; modified_base 3: mod_base = OTHER; note = 2'-O-methyluridine; modified_base 4: mod_base = OTHER; note = 2'-O-methylguanosine; modified_base 5..6: mod_base = OTHER; note = 2'-O-m; modified_base 1: mod_base = OTHER; note = n is mDVPU; modified_base 2: mod_base = OTHER; note = 2'-deoxyadenosine; note = 2'-O-methyladenosi)”, for which the IL-6 in series [2] (5 µg/mL) is on record as 1326.7 pg/mL; in series [2] (15 µg/mL), 1331.0 pg/mL; in series [2] (45 µg/mL), 1354.7 pg/mL. Also, the TNF alpha in series [2] (5 µg/mL) is given as 34.6 pg/mL; in series [2] (15 µg/mL), 35.2 pg/mL; in series [2] (45 µg/mL), 35.8 pg/mL.

On to “Z38: siRNA conjugate: sense SEQ ID NO:49, ligand D01 at 3' end of sense strand, antisense SEQ ID NO:77 (sense CAGCCCCTTATTGTTATACGA; antisense NCGTATNACAATAAGGGGCNGTT; ligand D01 at sense 3' end; listed as RNA; modified_base 1: mod_base = OTHER; note = 2'-O-methylcytidine; modified_base 2: mod_base = OTHER; note = 2'-O-methyladenosine; modified_base 3: mod_base = OTHER; note = 2'-O-methylguanosine; modified_base 4..7: mod_base = OTHER; note = 2'-O-me; note = n is mDVPU; note = 2'-deoxycytidine; modified_base 4: mod_base = OTHER; note = 2'-O-methyluridine;)”, for which the IL-6 is 1281.4 pg/mL in series [2] (5 µg/mL), 1257.1 pg/mL in series [2] (15 µg/mL) and 1268.3 pg/mL in series [2] (45 µg/mL). Also, the TNF alpha in series [2] (5 µg/mL) was found to be 33.5 pg/mL; in series [2] (15 µg/mL), 34.8 pg/mL; in series [2] (45 µg/mL), 34.4 pg/mL.

In general, EC50 refers to the concentration at which the effect is half-maximal. A higher EC50 goes with a need for much substance.
